Measurements reported in paper PMC11938259, “Heme delivery into soluble guanylyl cyclase requires a heme redox change and is regulated by NO and Hsp90 by distinct mechanisms” (The Journal of Biological Chemistry, 2025).

Molecular target: FlAsH-labeled TC-apo-sGCβ (rat sGCβ(1–385) with a TC motif) (rat, UniProt P20595 1-385, TC motif (CCPGCC) inserted at residue 239 to 244, FlAsH dye bound to the tetra-Cys (TC) motif; heme-free (apo))
Assay: cell-based or functional assay

Chain of FlAsH-labeled TC-apo-sGCβ (rat sGCβ(1–385) with a TC motif) (P20595 other isoform, or with tags, fused parts or gaps TC motif (CCPGCC) inserted at residue 239 to 244): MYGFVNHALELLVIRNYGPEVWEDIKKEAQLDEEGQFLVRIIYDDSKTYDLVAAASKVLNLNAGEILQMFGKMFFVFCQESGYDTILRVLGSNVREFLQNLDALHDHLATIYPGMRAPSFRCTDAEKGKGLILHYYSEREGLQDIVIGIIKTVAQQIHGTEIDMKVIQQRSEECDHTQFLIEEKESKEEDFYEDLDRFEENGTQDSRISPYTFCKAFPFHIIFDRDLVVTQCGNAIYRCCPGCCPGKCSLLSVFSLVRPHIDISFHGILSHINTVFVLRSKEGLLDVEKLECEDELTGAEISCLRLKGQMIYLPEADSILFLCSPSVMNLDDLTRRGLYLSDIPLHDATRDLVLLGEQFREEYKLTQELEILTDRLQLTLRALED

B1: glyceraldehyde 3-phosphate dehydrogenase (GAPDH), human (enzyme)
chain: not shown
B1 was tested, and the “heme transfer (FlAsH fluorescence kinetics) from the GAPDH–heme complex to a preformed complex of GAPDH bound on FlAsH-TC-apo-sGCβ, against FlAsH-TC-apo-sGCβ alone (Fig. S4)” value was 5 fold slower.
